From US20240261333A1, “NOVEL TARGETS FOR ENHANCING ANTI-TUMOR IMMUNITY” (THE BROAD INSTITUTE, INC., priority 2021, published 2024)

Tests used:
[1] = biological target: YBX1 (human) (UniProt P67809); assay: control IP with IgG, lysate of cells with N-FLAG B3GNT2, mass spectrometry
[2] = biological target: RHOT2 (human) (UniProt Q8IXI1); assay: as above
[3] = biological target: EIF3A (human) (UniProt Q14152); assay: as above
[4] = biological target: MAP4 (human) (UniProt P27816); assay: as above
[5] = biological target: RPS14 (human) (UniProt P62263); assay: as above
[6] = biological target: HNRNPM (human) (UniProt P52272); assay: as above
[7] = biological target: LCN1 (human) (UniProt P31025); assay: as above
[8] = biological target: IMMT (human) (UniProt Q16891); assay: as above
IMMT (human), sequence (Q16891 other isoform, or with tags, fused parts or gaps limits assumed): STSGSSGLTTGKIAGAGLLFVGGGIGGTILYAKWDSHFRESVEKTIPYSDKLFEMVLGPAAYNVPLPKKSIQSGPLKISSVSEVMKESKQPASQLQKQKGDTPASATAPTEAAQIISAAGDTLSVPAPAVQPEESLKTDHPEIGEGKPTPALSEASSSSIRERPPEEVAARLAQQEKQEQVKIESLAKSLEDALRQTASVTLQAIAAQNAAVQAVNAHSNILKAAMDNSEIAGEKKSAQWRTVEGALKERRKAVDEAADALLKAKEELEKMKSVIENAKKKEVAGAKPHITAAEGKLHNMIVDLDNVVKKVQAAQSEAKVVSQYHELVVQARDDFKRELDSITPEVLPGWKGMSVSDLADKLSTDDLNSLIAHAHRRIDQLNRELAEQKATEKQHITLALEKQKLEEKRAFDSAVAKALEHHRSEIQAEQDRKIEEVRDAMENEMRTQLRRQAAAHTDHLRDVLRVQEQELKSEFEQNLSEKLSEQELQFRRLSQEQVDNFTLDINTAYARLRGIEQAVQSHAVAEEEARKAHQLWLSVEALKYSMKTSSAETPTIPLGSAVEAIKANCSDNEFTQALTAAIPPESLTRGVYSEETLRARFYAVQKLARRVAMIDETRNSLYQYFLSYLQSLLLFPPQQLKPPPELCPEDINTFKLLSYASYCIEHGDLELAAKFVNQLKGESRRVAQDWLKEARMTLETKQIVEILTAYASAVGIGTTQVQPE

[9] = biological target: RPL23 (human) (UniProt P62829); assay: as above
[10] = biological target: KCTD5 (human) (UniProt Q9NXV2); assay: as above
KCTD5 (human), sequence (Q9NXV2 2-234 limits assumed): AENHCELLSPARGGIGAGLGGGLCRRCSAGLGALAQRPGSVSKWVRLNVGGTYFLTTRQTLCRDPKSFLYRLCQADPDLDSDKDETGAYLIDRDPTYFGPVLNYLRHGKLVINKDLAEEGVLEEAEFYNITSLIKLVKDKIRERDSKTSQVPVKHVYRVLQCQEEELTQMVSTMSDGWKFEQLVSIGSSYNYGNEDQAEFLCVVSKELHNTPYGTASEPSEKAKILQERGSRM

[11] = biological target: RPL7 (human) (UniProt P18124); assay: as above
[12] = biological target: SYNCRIP (human) (UniProt O60506); assay: as above
SYNCRIP (human), sequence (O60506 other isoform, or with tags, fused parts or gaps limits assumed): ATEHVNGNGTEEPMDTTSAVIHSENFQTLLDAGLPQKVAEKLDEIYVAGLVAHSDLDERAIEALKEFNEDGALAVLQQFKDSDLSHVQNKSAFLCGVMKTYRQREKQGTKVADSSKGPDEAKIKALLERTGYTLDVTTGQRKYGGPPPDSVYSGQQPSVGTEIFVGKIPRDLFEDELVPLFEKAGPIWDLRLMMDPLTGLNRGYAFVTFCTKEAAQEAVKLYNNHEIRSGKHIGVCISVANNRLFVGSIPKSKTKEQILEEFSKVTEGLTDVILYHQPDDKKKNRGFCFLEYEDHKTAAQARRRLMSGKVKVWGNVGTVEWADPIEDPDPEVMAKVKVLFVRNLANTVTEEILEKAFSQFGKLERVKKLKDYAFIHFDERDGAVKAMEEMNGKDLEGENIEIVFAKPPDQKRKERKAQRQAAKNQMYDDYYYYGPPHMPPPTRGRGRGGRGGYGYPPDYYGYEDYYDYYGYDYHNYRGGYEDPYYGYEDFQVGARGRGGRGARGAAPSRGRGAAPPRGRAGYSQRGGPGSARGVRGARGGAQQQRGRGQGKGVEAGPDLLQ

[13] = biological target: SYNPO (human) (UniProt Q8N3V7); assay: as above
[14] = biological target: RPS26 (human) (UniProt P62854); assay: as above
[15] = biological target: SERPINB3 (human) (UniProt P29508); assay: as above
SERPINB3 (human), sequence (P29508 whole entry): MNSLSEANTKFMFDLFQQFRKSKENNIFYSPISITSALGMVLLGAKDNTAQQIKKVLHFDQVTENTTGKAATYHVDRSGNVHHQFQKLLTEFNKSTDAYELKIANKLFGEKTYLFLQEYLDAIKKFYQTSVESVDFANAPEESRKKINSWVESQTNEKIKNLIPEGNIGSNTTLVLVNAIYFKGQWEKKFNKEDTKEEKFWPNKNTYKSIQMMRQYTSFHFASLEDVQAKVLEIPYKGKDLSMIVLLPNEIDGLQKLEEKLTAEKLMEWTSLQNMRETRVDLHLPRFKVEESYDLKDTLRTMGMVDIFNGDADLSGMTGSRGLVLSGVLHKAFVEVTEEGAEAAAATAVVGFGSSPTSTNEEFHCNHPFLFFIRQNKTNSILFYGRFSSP

[16] = biological target: TPM3 (human) (UniProt P06753); assay: as above
[17] = biological target: GEMIN4 (human) (UniProt P57678); assay: as above
[18] = biological target: CALML5 (human) (UniProt Q9NZT1); assay: as above
CALML5 (human), sequence (Q9NZT1 2-146 limits assumed): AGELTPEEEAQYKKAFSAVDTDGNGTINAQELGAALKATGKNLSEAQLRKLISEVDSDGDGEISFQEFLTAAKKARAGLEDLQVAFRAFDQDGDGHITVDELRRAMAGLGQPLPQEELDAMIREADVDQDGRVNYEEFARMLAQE

[19] = biological target: TELO2 (human) (UniProt Q9Y4R8); assay: as above
[20] = biological target: SYNM (human) (UniProt O15061); assay: as above
SYNM (human), sequence (O15061 whole entry): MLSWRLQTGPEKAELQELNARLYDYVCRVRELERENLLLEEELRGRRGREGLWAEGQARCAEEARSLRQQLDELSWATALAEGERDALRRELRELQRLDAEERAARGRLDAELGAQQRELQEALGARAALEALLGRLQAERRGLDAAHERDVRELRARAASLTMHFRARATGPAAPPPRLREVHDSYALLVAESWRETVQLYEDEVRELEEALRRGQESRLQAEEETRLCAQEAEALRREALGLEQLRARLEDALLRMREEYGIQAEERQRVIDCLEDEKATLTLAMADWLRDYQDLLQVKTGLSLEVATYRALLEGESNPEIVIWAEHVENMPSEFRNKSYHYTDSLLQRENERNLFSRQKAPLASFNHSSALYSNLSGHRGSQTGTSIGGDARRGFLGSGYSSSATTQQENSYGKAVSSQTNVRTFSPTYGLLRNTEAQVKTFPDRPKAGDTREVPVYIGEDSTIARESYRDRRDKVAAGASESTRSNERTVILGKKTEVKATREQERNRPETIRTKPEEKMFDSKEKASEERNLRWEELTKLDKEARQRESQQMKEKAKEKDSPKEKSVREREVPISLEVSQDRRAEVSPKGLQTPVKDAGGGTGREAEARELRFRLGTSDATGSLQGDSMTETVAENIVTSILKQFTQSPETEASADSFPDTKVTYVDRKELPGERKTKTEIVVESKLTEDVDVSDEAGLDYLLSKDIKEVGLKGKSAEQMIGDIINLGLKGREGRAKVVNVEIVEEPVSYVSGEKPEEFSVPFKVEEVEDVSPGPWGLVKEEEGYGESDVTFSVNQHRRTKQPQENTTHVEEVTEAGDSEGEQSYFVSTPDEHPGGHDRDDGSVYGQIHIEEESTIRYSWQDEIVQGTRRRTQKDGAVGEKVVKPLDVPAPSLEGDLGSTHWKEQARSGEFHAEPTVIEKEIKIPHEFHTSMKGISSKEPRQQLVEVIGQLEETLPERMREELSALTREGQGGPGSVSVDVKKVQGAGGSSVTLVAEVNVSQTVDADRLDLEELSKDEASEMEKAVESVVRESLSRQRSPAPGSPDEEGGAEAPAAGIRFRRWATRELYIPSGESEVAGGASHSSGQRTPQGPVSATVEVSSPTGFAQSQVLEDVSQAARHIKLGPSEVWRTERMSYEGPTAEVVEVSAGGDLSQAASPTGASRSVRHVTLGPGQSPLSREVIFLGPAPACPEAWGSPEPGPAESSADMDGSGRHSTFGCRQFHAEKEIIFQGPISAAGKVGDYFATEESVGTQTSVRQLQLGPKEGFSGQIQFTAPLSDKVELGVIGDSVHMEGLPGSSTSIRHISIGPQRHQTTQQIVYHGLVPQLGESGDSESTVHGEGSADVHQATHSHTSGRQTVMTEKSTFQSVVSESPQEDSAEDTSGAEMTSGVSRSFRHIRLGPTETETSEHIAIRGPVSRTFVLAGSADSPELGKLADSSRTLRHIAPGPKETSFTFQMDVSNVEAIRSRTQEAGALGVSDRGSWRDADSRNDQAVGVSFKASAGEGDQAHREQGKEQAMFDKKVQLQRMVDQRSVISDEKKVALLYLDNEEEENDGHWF

[21] = biological target: T1, YTHDF2 (human) (UniProt Q9Y5A9); assay: as above
T1 sequence (looked up): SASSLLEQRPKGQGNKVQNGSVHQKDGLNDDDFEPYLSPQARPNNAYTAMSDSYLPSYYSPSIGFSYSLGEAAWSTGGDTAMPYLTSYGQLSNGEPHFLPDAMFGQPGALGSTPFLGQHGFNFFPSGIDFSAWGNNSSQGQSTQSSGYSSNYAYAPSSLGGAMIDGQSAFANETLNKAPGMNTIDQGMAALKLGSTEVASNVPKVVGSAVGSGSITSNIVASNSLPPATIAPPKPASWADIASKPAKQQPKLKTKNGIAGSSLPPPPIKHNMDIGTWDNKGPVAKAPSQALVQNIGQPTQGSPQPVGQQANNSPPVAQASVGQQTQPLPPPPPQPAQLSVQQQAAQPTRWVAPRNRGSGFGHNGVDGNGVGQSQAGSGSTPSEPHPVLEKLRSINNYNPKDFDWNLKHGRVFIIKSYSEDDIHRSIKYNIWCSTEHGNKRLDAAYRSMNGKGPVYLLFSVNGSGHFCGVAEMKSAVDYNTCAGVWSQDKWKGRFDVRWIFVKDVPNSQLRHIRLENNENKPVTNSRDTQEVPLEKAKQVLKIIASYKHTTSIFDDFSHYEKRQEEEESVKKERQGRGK

[22] = biological target: PKM (human) (UniProt P14618); assay: as above
[23] = biological target: RPS27A (human) (UniProt P62979); assay: as above
[24] = biological target: DHX9 (human) (UniProt Q08211); assay: as above
[25] = biological target: PPFIBP1 (human) (UniProt Q86W92); assay: as above
[26] = biological target: RPS11 (UniProt P62280); assay: co-IP with mouse IgG control, mass spectrometry; lysate of C-FLAG B3GNT2 cells
[27] = biological target: RPL31 (UniProt P62899); assay: as above
[28] = biological target: PCMT1 (UniProt P22061); assay: as above
PCMT1, sequence (P22061 2-227 limits assumed): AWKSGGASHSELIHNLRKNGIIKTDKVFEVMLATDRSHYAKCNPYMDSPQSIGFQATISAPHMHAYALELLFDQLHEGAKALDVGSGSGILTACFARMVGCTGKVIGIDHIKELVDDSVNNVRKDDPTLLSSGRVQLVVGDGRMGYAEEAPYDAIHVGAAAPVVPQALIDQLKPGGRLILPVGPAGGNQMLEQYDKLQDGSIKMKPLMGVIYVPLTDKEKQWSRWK

[29] = biological target: HNRNPA1 (UniProt P09651); assay: as above
[30] = biological target: AHNAK (UniProt Q09666); assay: as above
[31] = biological target: SSR1 (UniProt P43307); assay: as above
[32] = biological target: ATXN2L (UniProt Q8WWM7); assay: as above

RHOT2 (human), sequence (Q8IXI1 whole entry): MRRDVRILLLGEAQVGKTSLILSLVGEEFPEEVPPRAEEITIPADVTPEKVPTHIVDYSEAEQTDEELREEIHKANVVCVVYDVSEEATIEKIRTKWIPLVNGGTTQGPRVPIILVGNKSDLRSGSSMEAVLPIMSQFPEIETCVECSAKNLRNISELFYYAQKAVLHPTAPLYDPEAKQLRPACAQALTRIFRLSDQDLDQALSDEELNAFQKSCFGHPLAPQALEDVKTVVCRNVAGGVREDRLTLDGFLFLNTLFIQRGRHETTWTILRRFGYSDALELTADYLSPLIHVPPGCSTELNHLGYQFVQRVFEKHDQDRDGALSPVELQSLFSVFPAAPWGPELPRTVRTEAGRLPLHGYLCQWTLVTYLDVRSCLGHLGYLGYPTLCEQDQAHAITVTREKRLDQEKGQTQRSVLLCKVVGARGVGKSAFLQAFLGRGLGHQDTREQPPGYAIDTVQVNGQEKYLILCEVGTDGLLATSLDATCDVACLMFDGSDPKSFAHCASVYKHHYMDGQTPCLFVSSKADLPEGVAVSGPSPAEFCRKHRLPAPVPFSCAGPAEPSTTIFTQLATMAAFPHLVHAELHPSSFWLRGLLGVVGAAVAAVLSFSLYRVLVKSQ
YBX1 (human), sequence (P67809 2-324 limits assumed): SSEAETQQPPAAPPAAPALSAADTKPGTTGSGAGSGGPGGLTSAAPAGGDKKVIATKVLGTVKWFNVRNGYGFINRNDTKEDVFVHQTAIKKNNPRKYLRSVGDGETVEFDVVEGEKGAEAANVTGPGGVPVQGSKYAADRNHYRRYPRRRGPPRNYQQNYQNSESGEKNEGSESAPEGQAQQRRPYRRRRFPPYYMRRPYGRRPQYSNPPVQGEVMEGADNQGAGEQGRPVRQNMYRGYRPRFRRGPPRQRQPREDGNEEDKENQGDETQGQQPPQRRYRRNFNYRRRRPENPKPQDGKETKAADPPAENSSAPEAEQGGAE

**Q.** With “IgG control (Millipore Sigma 12-371) (antibody)” as the substance, how does the co-IP mass spectrometry count [1] read?
**A.** Its co-IP mass spectrometry count is 3.

**Q.** And the co-IP mass spectrometry count [2]?
**A.** Its co-IP mass spectrometry count is 0.

**Q.** What about the co-IP mass spectrometry count [3] of the same substance?
**A.** The co-IP mass spectrometry count was 3.

**Q.** What about the co-IP mass spectrometry count [4] of the same substance?
**A.** The co-IP mass spectrometry count was 0.

**Q.** And the co-IP mass spectrometry count [5]?
**A.** The co-IP mass spectrometry count was 9.

**Q.** What about the co-IP mass spectrometry count [6] of the same substance?
**A.** Its co-IP mass spectrometry count is 5.

**Q.** What about the co-IP mass spectrometry count [7] of the same substance?
**A.** The co-IP mass spectrometry count was 9.

**Q.** And the co-IP mass spectrometry count [8]?
**A.** The co-IP mass spectrometry count was 17.

**Q.** What about the co-IP mass spectrometry count [9] of the same substance?
**A.** Its co-IP mass spectrometry count is 5.

**Q.** And the co-IP mass spectrometry count [10]?
**A.** Its co-IP mass spectrometry count is 0.

**Q.** And the co-IP mass spectrometry count [11]?
**A.** The co-IP mass spectrometry count was 5.

**Q.** What about the co-IP mass spectrometry count [12] of the same substance?
**A.** The co-IP mass spectrometry count was 6.

**Q.** And the co-IP mass spectrometry count [13]?
**A.** Its co-IP mass spectrometry count is 4.

**Q.** What about the co-IP mass spectrometry count [14] of the same substance?
**A.** The co-IP mass spectrometry count was 4.

**Q.** What about the co-IP mass spectrometry count [15] of the same substance?
**A.** Its co-IP mass spectrometry count is 3.

**Q.** And the co-IP mass spectrometry count [16]?
**A.** Its co-IP mass spectrometry count is 5.

**Q.** What about the co-IP mass spectrometry count [17] of the same substance?
**A.** Its co-IP mass spectrometry count is 0.

**Q.** What about the co-IP mass spectrometry count [18] of the same substance?
**A.** The co-IP mass spectrometry count was 0.

**Q.** And the co-IP mass spectrometry count [19]?
**A.** Its co-IP mass spectrometry count is 0.

**Q.** What about the co-IP mass spectrometry count [20] of the same substance?
**A.** Its co-IP mass spectrometry count is 5.

**Q.** What about the co-IP mass spectrometry count [21] of the same substance?
**A.** Its co-IP mass spectrometry count is 4.

**Q.** What about the co-IP mass spectrometry count [22] of the same substance?
**A.** Its co-IP mass spectrometry count is 2.

**Q.** And the co-IP mass spectrometry count [23]?
**A.** The co-IP mass spectrometry count was 11.

**Q.** What about the co-IP mass spectrometry count [24] of the same substance?
**A.** Its co-IP mass spectrometry count is 0.

**Q.** And the co-IP mass spectrometry count [25]?
**A.** The co-IP mass spectrometry count was 0.

**Q.** What about the co-IP mass spectrometry count [26] of the same substance?
**A.** Its co-IP mass spectrometry count is 9.

**Q.** What about the co-IP mass spectrometry count [27] of the same substance?
**A.** The co-IP mass spectrometry count was 0.

**Q.** What about the co-IP mass spectrometry count [28] of the same substance?
**A.** The co-IP mass spectrometry count was 0.

**Q.** And the co-IP mass spectrometry count [29]?
**A.** Its co-IP mass spectrometry count is 4.

**Q.** What about the co-IP mass spectrometry count [30] of the same substance?
**A.** The co-IP mass spectrometry count was 2.

**Q.** And the co-IP mass spectrometry count [31]?
**A.** Its co-IP mass spectrometry count is 0.

**Q.** What about the co-IP mass spectrometry count [32] of the same substance?
**A.** Its co-IP mass spectrometry count is 2.
